# Source: US20050069907A1, “Methods for using double-mutant RNA polymerases with reduced discrimination between non-canonical and canonical nucleoside triphosphates” (priority 2002, published 2005)
# Legend:
# Format in all cases: biochemical
# [1] = system: supercoiled pT75; experiment: Kinetic constants (Km, kcat) with rNTPs or dNTPs
# Excerpt: 1. One first determines the Km and the kcat for each enzyme (mutant and wild-type) using the non-canonical nucleotide as a substrate and using the canonical nucleotide as a substrate, as was described previously (Patra, et al., 1992). The value “Km” expresses how readily the enzyme will bind the substrate (a larger Km implies weaker binding) and “kcat” expresses the rapidity with which the substrate, once bound by the enzyme, is reacted upon.
# 2. One next calculates the numerical value for kcat/Km for each enzyme and for each substrate. By broad scientific consensus, the specificity of an enzyme for a substrate is felt to be most suitably expressed by this ratio.
# 3. For each enzyme, one then calculates the numerical value obtained by using the value of kcat/Km for the canonical substrate in the numerator and kcat/Km for the non-canonical substrate in the denominator. This number indicates how much a given enzyme discriminates between the two substrates. […] If this value is greater than 1, then the enzyme discriminates by that factor between the two substrates; for example, if the value is 100, then the enzyme discriminates by a factor of 100 in favor of the canonical substrate compared to the non-canonical substrate. Similarly, a value less than 1 means that the enzyme discriminates in favor of the non-canonical substrate over the canonical substrate.
# 4. Finally, one compares the numerical value calculated in step 3 above for the wild-type (W.T.) enzyme with the value calculated in step 3 for the mutant enzyme. If the value calculated for the mutant enzyme is less than the value calculated for the wild-type enzyme, then the mutant enzyme “has a reduced discrimination for the non-canonical substrate compared to the wild-type enzyme.” For example, if the values calculated in step 3 are 100 for the wild-type enzyme and 10 for the mutant enzyme, then the discrimination of the mutant enzyme in favor of the canonical substrate (or against the non-canonical substrate) is reduced 10-fold compared to the discrimination of the wild-type enzyme.
# Determination of NTP Km and kcat was as described previously (Patra, et al., 1992).
# The increased utilization of dNTPs by Y639F is due to both a decreased Km and an increased kcat for dNTPs: The Km and kcat of the W.T. and Y639F polymerases with rATP, rITP and 5 different dNTPs were measured (see, Table VI).
# [2] = system: poly(dT); experiment: Apparent miscoding on homopolymeric template poly(dT)
# Procedure: (§1) Transcription reactions: Transcription reactions were carried out in 40 mM Tris-Cl pH 8.0, 15 mM MgCl2, and 5 mM DTT or 20 mM Manganese Citrate pH 8.0, 5 mM DTT at 37° C. Template, polymerase, and NTP concentrations were as indicated in the legends to the figures and tables. Relative activity determinations were made by taking 4 μl aliquots of reactions at 5, 10, and 20 minute time points and spotting on to DE81 filter paper. Unincorporated nucleotides were separated from incorporated nucleotides by washing the filter paper with 0.5 M KH2PO4 pH 7.0 and retained radioactive nucleotide was quantitated with a Molecular Dynamics phosphorimager. To evaluate rNTP/dNTP selectivity, reactions were run with 4 rNTPs and pT75 as template and α-P^32 rNTPs or α-P^32 dNTPs were used to label the transcripts. The relative rate of incorporation of an rNTP vs. its cognate dNTP was determined from the relative percentages of labeled rNTP vs. dNTP incorporated into DE81 retainable RNA at 5, 10, and 20 minute time points. Apparent miscoding frequencies were determined similarly, though in this instance the template was a single-stranded homopolymer and the reaction contained the complementary unlabeled rNTP, and complementary α-P^32 rNTP or one of the 3 non-complementary α-P^32 rNTPs. The relative percentages of labeled complementary vs. non-complementary rNTPs incorporated at 5, 10 and 20 minute time points gave an apparent miscoding rate. The rNTP/dNTP selectivity assay was used to test the following T7 RNAP mutants for effects on substrate discrimination: D537S, D537E, S539A, R5S1S, D552S, R627S, K631S, L637A, Y639S, Y639F, Y639A, G640A, F644A, G645A, Q649S, […], H811S, H811A, D812A, D812E, D812S, D812N, D879E+ΔF882+ΔA883, D879E+A881T+ΔA883, D879E+F884+A885, D879E+F882Y, D879E+ΔA883, D879E+F882W, D879E.
# (§2) An increase in miscoding would be reflected in an increase in the rate of incorporation of the non-complementary NTP into RNA.
# (§3) Numbers are averages from 2 experiments and reflect the ratio of the percentages of labeled rNTPs incorporated into RNA in reactions in which unlabeled complementary rNTPs were in great excess (0.5 mM) to labeled complementary or non-complementary rNTPs. Templates were at 0.1 mg/ml. Polymerases were at 10^−8 M in Mg^2+ buffer and 10^−7 M in Mn^2+ buffer.
# (§4) *The upper number refers to results obtained in Mg^2+ buffer, the lower number to results in Mn^2+ buffer. n.d.: G640A, Y639A, Y639S were poorly active in Mn^2+ buffer, or on poly(dT) under all conditions.
# [3] = system: poly(dC); experiment: Apparent miscoding on homopolymeric template poly(dC); details: poly(dC)
# Procedure: as §1, §2, §3, §4
# [4] = rATP, ranges from 3 experiments
Substance,Discrimination rNTPs vs. dNTPs: average kcat/Km of four rNTPs over average kcat/Km of four dNTPs [1],Kcat ([1]; DTTP) [s⁻¹],Km ([1]; DTTP) [µM],Kcat ([1]; dATP) [s⁻¹],Km ([1]; dATP) [µM],Kcat ([1]; dCTP) [s⁻¹],Km ([1]; dCTP) [µM],Kcat ([1]; dGTP) [s⁻¹],Km ([1]; dGTP) [µM],Kcat ([1]; dUTP) [s⁻¹],Km ([1]; dUTP) [µM],Kcat ([1]; rATP) [s⁻¹],"Km [1, 4] [µM]",Kcat ([1]; rITP) [s⁻¹],Km ([1]; rITP) [µM],"Increase in miscoding rates in Mn^2+ buffer, on average [2] [fold]",Relative rate of incorporation ATP/CTP ([2]; Mg^2+ buffer),Relative rate of incorporation ATP/GTP ([2]; Mg^2+ buffer),Relative rate of incorporation ATP/UTP ([2]; Mg^2+ buffer),Relative rate of incorporation ATP/CTP ([2]; Mn^2+ buffer),other results
W.T.: wild-type T7 RNA polymerase [reference compound],about 120 fold,26 to 29,209 to 262,6 to 9,2000 to 5000,9 to 14,4300 to 13500,5 to 9,602 to 701,25 to 39,4400 to 9000,190 to 220,34 to 68,170 to 230,29 to 59,~5,>340,170,121,77,Relative rate of incorporation ATP/GTP ([2]; Mn^2+ buffer): 50; Relative rate of incorporation ATP/UTP ([2]; Mn^2+ buffer): 21; Relative rate of incorporation GTP/ATP ([3]; Mg^2+ buffer): 233; Relative rate of incorporation GTP/CTP ([3]; Mg^2+ buffer): 400; Relative rate of incorporation GTP/ATP ([3]; Mn^2+ buffer): 9.3; Relative rate of incorporation GTP/CTP ([3]; Mn^2+ buffer): 32; Relative rate of incorporation GTP/UTP ([3]; Mn^2+ buffer): 53 (Mn2+)*
Y639F: T7 RNAP with wild-type tyrosine at position 639 substituted by phenylalanine,about 6 fold,70 to 110,38 to 59,50 to 70,200 to 350,50 to 90,920 to 1600,30 to 50,185 to 264,70 to 130,52 to 92,150 to 210,53 to 125,180 to 200,34 to 94,~5,>94,94,94,60,"kcat with dNTPs less than for rNTPs [1]: 2-4 fold; Reduced discrimination between dNTPs and rNTPs compared to wild-type ([1]; from average kcat/Km values): ~20 fold; Increase, relative to W.T., in ratio of rates of rGTP to rATP incorporation [2]: ~2 fold; Relative rate of incorporation ATP/GTP ([2]; Mn^2+ buffer): 27; Relative rate of incorporation ATP/UTP ([2]; Mn^2+ buffer): 20; Relative rate of incorporation GTP/ATP ([3]; Mg^2+ buffer): 338; Relative rate of incorporation GTP/CTP ([3]; Mg^2+ buffer): 550; Relative rate of incorporation GTP/UTP ([3]; Mg^2+ buffer): >1760; Relative rate of incorporation GTP/ATP ([3]; Mn^2+ buffer): 8; Relative rate of incorporation GTP/CTP ([3]; Mn^2+ buffer): 40; Relative rate of incorporation GTP/UTP ([3]; Mn^2+ buffer): 55"
